B1: KRT15 (parent)
chain: FGGGSTRGGSLLAGGGGFGGGSLS
B2: IQUB (parent)
chain: CRNCINLQNEAQKRESFLKYKCLL

Variants of: B1
Test: protein stability index of a GFP-peptide fusion (GPS, HEK-293T) (PSI 1-6); higher = more stable
Conditions: c terminus: a fixed tail appended
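Note: lentivirally expressed fusions sorted by FACS into six bins by GFP to DsRed ratio, PSI derived from sequencing read proportions per bin multiplied by bin number.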

Row | Variant | protein stability index
1 | G19F | 2.8
2 | G19N | 2
3 | G3A | 1.79
4 | G20S | 1.77
5 | G20N | 2.17
6 | G9D | 2.73
7 | T6F | 2.52
8 | S5P | 1.53
9 | S5Q | 2.55
10 | F18I | 1.76
11 | F18P | 2.21
12 | G8T | 1.8
13 | G8E | 1.64
14 | G2W | 2.54
15 | G2M | 2.15
16 | G17K | 1.41
17 | G17V | 1.23
18 | G17N | 1.41
19 | G16Q | 2.4
20 | G16V | 1.28
21 | G16Y | 1.9
22 | F1K | 4.35
23 | L11Y | 1.97

Variants of: B2
Test: as above
Conditions: c terminus: a fixed tail appended

Row | Variant | protein stability index
24 | E10L | 1.65
25 | E10T | 1.71
26 | E10G | 1.68
27 | E10C | 1.71
28 | E10R | 1.7
29 | E10M | 2.14
30 | E10N | 1.94
31 | E10K | 2.09
32 | E10D | 1.63
33 | E10H | 2.56
34 | E10A | 1.52
35 | E10I | 1.35
36 | E10S | 1.9
37 | E10F | 2.7
38 | E10P | 1.37
39 | E10Q | 2.23
40 | L7W | 2.57
41 | L7Q | 1.75
42 | L7T | 1.67
43 | L7Y | 1.86
44 | L7M | 2.39
45 | L7K | 1.95
46 | L7P | 2.21
47 | L7R | 1.65

Row | Variant | protein stability index
48 | L7V | 2.01
49 | L7S | 2.29
50 | L7N | 2.26
51 | L18M | 2.72
52 | L18P | 2.11
53 | L18G | 2.9
54 | L18V | 1.88
55 | L18F | 2.79
56 | L18S | 1.39
57 | L18D | 1.63
58 | L18C | 2.6
59 | L18W | 1.96
60 | L18T | 1.88
61 | L18E | 2.25
62 | L18I | 1.51
63 | L18K | 2.15
64 | L18R | 1.65
65 | L18A | 1.57
66 | L18Q | 1.85
67 | L18Y | 1.38
68 | L18N | 2.27
69 | L18H | 2.23
70 | A11R | 1.19
71 | A11V | 1.57

Row | Variant | protein stability index
72 | A11H | 1.66
73 | A11E | 2.19
74 | A11P | 1.71
75 | A11T | 2.8
76 | A11K | 1.78
77 | A11L | 1.98
78 | A11I | 1.82
79 | A11N | 1.56
80 | A11D | 2.08
81 | A11Q | 1.34
82 | A11Y | 1.69
83 | A11M | 2.25
84 | A11S | 2.06
85 | A11C | 1.59
86 | F17C | 2.13
87 | F17D | 2.45
88 | F17A | 2.02
89 | F17H | 1.68
90 | F17N | 2.22
91 | F17L | 1.77
92 | F17R | 2.65
93 | F17E | 2.6
94 | F17Y | 1.59
95 | F17W | 1.58

Row | Variant | protein stability index
96 | F17G | 2.84
97 | F17S | 2.08
98 | F17Q | 1.5
99 | F17I | 1.79
100 | F17M | 1.58
101 | F17K | 2.33
102 | F17P | 2.33
103 | F17V | 2.25
104 | F17T | 2.74
105 | Q8W | 2.46
106 | Q8I | 1.72
107 | Q8L | 3.13
108 | Q8N | 1.87
109 | Q8E | 2.53
110 | Q8V | 2.12
111 | Q8R | 2.17
112 | Q8T | 1.61
113 | Q8S | 2.82
114 | Q8P | 1.68
115 | Q8K | 1.38
116 | Q8D | 1.13
117 | Q8H | 2.08
118 | Q8F | 1.59
119 | Q8G | 1.57

Row | Variant | protein stability index
120 | Q8C | 2.9
121 | Q8A | 1.63
122 | L24K | 2.53
123 | L24E | 1.65
124 | L24C | 3.57
125 | L24A | 2.56
126 | L24V | 1.27
127 | L24I | 1.75
128 | L24S | 3.46
129 | L24Q | 1.74
130 | L24F | 1.82
131 | L24H | 2.19
132 | L24T | 1.8
133 | L24D | 2.81
134 | L24P | 2.22
135 | L24M | 1.79
136 | L24R | 1.82
137 | L24W | 1.46
138 | L24N | 1.86
139 | L24G | 1.37
140 | L24Y | 1.69
141 | K19W | 1.01
142 | K19R | 1.56
143 | K19T | 2.23

Row | Variant | protein stability index
144 | K19P | 1.46
145 | K19Q | 1.85
146 | K19D | 1.3
147 | K19M | 2.28
148 | K19I | 2.19
149 | K19G | 2.2
150 | K19F | 2.54
151 | K19E | 1.74
152 | K19L | 2.69
153 | K19A | 1.46
154 | K19C | 3.27
155 | K19H | 1.68
156 | K19N | 1.63
157 | C22P | 2.25
158 | C22Y | 1.84
159 | C22S | 1.65
160 | C22D | 2.46
161 | C22I | 2.13
162 | C22R | 1.3
163 | C22G | 1.42
164 | C22M | 1.79
165 | C22A | 1.58
166 | C22N | 1.49
167 | C22L | 1.76

Row | Variant | protein stability index
168 | C22K | 1.87
169 | C22W | 2.01
170 | C22H | 2.18
171 | C22Q | 2.33
172 | C22V | 1.73
173 | C22E | 2.69
174 | C22T | 1.41
175 | L23H | 1.6
176 | L23G | 2.03
177 | L23P | 2.69
178 | L23F | 2.53
179 | L23V | 3.23
180 | L23D | 2.7
181 | L23Q | 1.87
182 | L23I | 2.25
183 | L23N | 2.12
184 | L23E | 1.75
185 | L23Y | 2.05
186 | L23S | 2.18
187 | L23C | 2.98
188 | L23T | 1.97
189 | L23A | 1.5
190 | L23R | 2.17
191 | L23M | 1.77

Row | Variant | protein stability index
192 | L23W | 2.21
193 | K21I | 2.28
194 | K21S | 1.94
195 | K21R | 2.53
196 | K21T | 1.58
197 | K21W | 1.78
198 | K21A | 1.16
199 | K21L | 1.38
200 | K21E | 1.75
201 | K21P | 1.74
202 | K21H | 2.47
203 | K21N | 1.47
204 | K21F | 1.74
205 | K21C | 1.77
206 | K21Q | 2.28
207 | K21D | 2.06
208 | K21V | 3.66
209 | K21G | 2.7
210 | K21Y | 1.51
211 | K21M | 1.76
212 | S16R | 2.62
213 | S16L | 1.99
214 | S16Q | 2.06
215 | S16T | 1.59

Row | Variant | protein stability index
216 | S16P | 2.2
217 | S16I | 1.59
218 | S16D | 2.11
219 | S16H | 2.25
220 | S16F | 2.23
221 | S16E | 2.15
222 | S16A | 2.05
223 | S16G | 2.93
224 | S16K | 1.88
225 | S16W | 1.69
226 | S16N | 1.84
227 | S16V | 2.4
228 | S16C | 1.53
229 | Q12V | 2.12
230 | Q12P | 2.83
231 | Q12S | 1.31
232 | Q12I | 2.58
233 | Q12M | 1.5
234 | Q12H | 1.75
235 | Q12Y | 2.28
236 | Q12R | 1.96
237 | Q12W | 2.31
238 | Q12G | 1.75
239 | Q12E | 2.29

Row | Variant | protein stability index
240 | Q12D | 1.87
241 | Q12T | 1.71
242 | Q12N | 1.69
243 | Q12C | 1.81
244 | Q12F | 2.23
245 | Q12K | 2.06
246 | Q12A | 2.34
247 | N9L | 2.12
248 | N9R | 2.42
249 | N9W | 2.72
250 | N9P | 2.33
251 | N9Y | 2.32
252 | N9K | 1.98
253 | N9E | 1.42
254 | N9M | 1.39
255 | N9Q | 1.49
256 | N9T | 1.33
257 | N9S | 1.95
258 | N9G | 2.15
259 | N9H | 1.53
260 | N9C | 1.57
261 | N9I | 2.01
262 | N9D | 2.28
263 | N9A | 1.84

Row | Variant | protein stability index
264 | N9V | 1.53
265 | Y20L | 2.14
266 | Y20N | 2.96
267 | Y20P | 1.89
268 | Y20H | 1.69
269 | Y20T | 2.14
270 | Y20R | 1.83
271 | Y20D | 2.11
272 | Y20F | 1.66
273 | Y20G | 3.06
274 | Y20Q | 2.96
275 | Y20C | 3.65
276 | Y20A | 2.34
277 | Y20W | 2.46
278 | Y20K | 2.46
279 | Y20M | 2.66
280 | Y20E | 2.17
281 | Y20S | 1.5
282 | E15N | 2.51
283 | E15R | 1.08
284 | E15T | 2.24
285 | E15Y | 2.04
286 | E15W | 1.62
287 | E15F | 2.57

Row | Variant | protein stability index
288 | E15A | 2.85
289 | E15Q | 2.01
290 | E15L | 2.77
291 | E15S | 2.3
292 | E15G | 2.37
293 | E15M | 3.62
294 | E15K | 1.92
295 | E15H | 2.75
296 | E15C | 1.47
297 | E15P | 2.05
298 | E15D | 2.13
299 | K13V | 1.78
300 | K13P | 2.02
301 | K13L | 2.79
302 | K13C | 1.17
303 | K13T | 2.04
304 | K13N | 1.85
305 | K13M | 1.8
306 | K13Q | 1.75
307 | K13F | 2.35
308 | K13E | 1.29
309 | K13I | 2.01
310 | K13Y | 1.73
311 | K13W | 2.06

Row | Variant | protein stability index
312 | K13A | 1.54
313 | K13H | 2.74
314 | K13D | 1.58
315 | K13G | 2.04
316 | K13R | 1.74
317 | R14S | 2.56
318 | R14P | 2.35
319 | R14G | 1.67
320 | R14C | 1.64
321 | R14F | 2.34
322 | R14V | 2.36
323 | R14H | 1.83
324 | R14T | 1.84
325 | R14K | 2.02
326 | R14W | 1.86
327 | R14I | 2.86
328 | R14N | 2.26
329 | R14M | 1.39
330 | R14Q | 1.89
331 | R14Y | 2.43
332 | R14A | 1.02
333 | R14D | 2.66
334 | R14E | 1.36
